Assay [1] addresses human BCMA on cells (human) (UniProt Q02223). The experiment in a line: FACS, H929 cells. In general terms: A flow cytometer gives signals particle by particle.
The target in assay [2] is monkey BCMA-His protein (monkey). Description: ELISA, monkey BCMA-His coated; Ab 10 nM. (In general: ELISA stands for enzyme-linked immunosorbent assay.)
Assay [3] shares this target. The experiment in a line: ELISA, monkey BCMA-His coated; Ab 0.001 nM.
Assay [4] shares this target. The experiment in a line: ELISA, monkey BCMA-His coated; Ab 0.0001 nM.
For assay [5], the target named is human BCMA-His protein (human) (UniProt Q02223). The experiment in a line: ELISA, human BCMA-His coated; Ab 0.001 nM.
Assay [6] addresses human BCMA on cells (human) (UniProt Q02223). Description: cell ELISA, Flp-inCHO-human BCMA cells; Ab 0.14 nM.
Assay [7] addresses human BCMA-His protein (human) (UniProt Q02223). Description: ELISA, human BCMA-His coated; Ab 1 nM.
Assay [8] addresses human BCMA on cells (human) (UniProt Q02223). Description: FACS, U266 cells.
The target is the same in assay [9]. Description: cell ELISA, Flp-inCHO-human BCMA cells; Ab 100.00 nM.
The target in assay [10] is human BCMA-His protein (human) (UniProt Q02223). The experiment in a line: ELISA, human BCMA-His coated; Ab 0.01 nM.
For assay [11], the target named is monkey BCMA-His protein (monkey). Description: ELISA, monkey BCMA-His coated; Ab 0.0001 nM. This is another data set of the same source.
Assay [12] has as its target human BCMA on cells (human) (UniProt Q02223). Description: cell ELISA, Flp-inCHO-human BCMA cells; Ab 1.23 nM.
Assay [13] has as its target monkey BCMA-His protein (monkey). The experiment in a line: ELISA, monkey BCMA-His coated; Ab 100 nM.
The target is the same in assay [14]. Description: ELISA, monkey BCMA-His coated; Ab 10 nM. This is another data set of the same source.
The target of assay [15] is human BCMA-His protein (human) (UniProt Q02223). The experiment in a line: ELISA, human BCMA-His coated; Ab 0.0001 nM.
In assay [16] the target is monkey BCMA on cells (monkey). The experiment in a line: FACS, Flp-in CHO-monkey BCMA cells.
Assay [17] addresses human BCMA on cells (human) (UniProt Q02223). The experiment in a line: cell ELISA, Flp-inCHO-human BCMA cells; Ab 33.33 nM.
The target in assay [18] is human BCMA-His protein (human) (UniProt Q02223). Description: ELISA, human BCMA-His coated; Ab 100 nM.
Assay [19] deals with human BCMA on cells (human) (UniProt Q02223). Description: cell ELISA, Flp-inCHO-human BCMA cells; Ab 0.002 nM.
Assay [20] has the same target. Description: FACS, U266 cells. The source holds these as a separate data set.
Assay [21] shares this target. Description: cell ELISA, Flp-inCHO-human BCMA cells; Ab 0.02 nM.
Assay [22] has the same target. Description: FACS, RPMI8226 cells.
Assay [23] deals with monkey BCMA-His protein (monkey). Description: ELISA, monkey BCMA-His coated; Ab 100 nM. The source holds these as a separate data set.
Assay [24] concerns the target human BCMA on cells (human) (UniProt Q02223). Description: FACS, Flp-in CHO-human BCMA cells.
Assay [25] shares this target. Description: cell ELISA, Flp-inCHO-human BCMA cells; Ab 0.41 nM.
In assay [26] the target is human BCMA-His protein (human) (UniProt Q02223). The experiment in a line: ELISA, human BCMA-His coated; Ab 10 nM.
Assay [27] concerns the target human BCMA on cells (human) (UniProt Q02223). The experiment in a line: FACS, H929 cells. The source holds these as a separate data set.
In assay [28] the target is monkey BCMA-His protein (monkey). The experiment in a line: ELISA, monkey BCMA-His coated; Ab 0.001 nM. The source holds these as a separate data set.
The target in assay [29] is human BCMA on cells (human) (UniProt Q02223). Description: cell ELISA, Flp-inCHO-human BCMA cells; Ab 0.05 nM.
The target in assay [30] is monkey BCMA-His protein (monkey). Description: ELISA, monkey BCMA-His coated; Ab 0.01 nM.
In assay [31] the target is human BCMA-His protein (human) (UniProt Q02223). Description: ELISA, human BCMA-His coated; Ab 10 nM. This is another data set of the same source.
The target of assay [32] is human BCMA on cells (human) (UniProt Q02223). The experiment in a line: cell ELISA, Flp-inCHO-human BCMA cells; Ab 3.70 nM.
Assay [33] shares this target. The experiment in a line: cell ELISA, Flp-inCHO-human BCMA cells; Ab 11.11 nM.
For assay [34] the target is unchanged. The experiment in a line: cell ELISA, Flp-inCHO-human BCMA cells; Ab 0.01 nM.
The target of assay [35] is monkey BCMA-His protein (monkey). Description: ELISA, monkey BCMA-His coated; Ab 1 nM.
The target is the same in assay [36]. The experiment in a line: ELISA, monkey BCMA-His coated; Ab 0.1 nM.
For assay [37] the target is unchanged. Description: ELISA, monkey BCMA-His coated; Ab 0.1 nM. This is another data set of the same source.
The target in assay [38] is human BCMA on cells (human) (UniProt Q02223). The experiment in a line: FACS, RPMI8226 cells. This is another data set of the same source.
Assay [39] deals with human BCMA-His protein (human) (UniProt Q02223). Description: ELISA, human BCMA-His coated; Ab 0.1 nM.
For assay [40] the target is unchanged. Description: ELISA, human BCMA-His coated; Ab 0.0001 nM. The source holds these as a separate data set.
Assay [41] has as its target monkey BCMA-His protein (monkey). Description: ELISA, monkey BCMA-His coated; Ab 1 nM. The source holds these as a separate data set.
The target in assay [42] is human BCMA-His protein (human) (UniProt Q02223). Description: competition ELISA vs hAPRIL-biotin on coated human BCMA; antibody 0.41 nM.
The target is the same in assay [43]. The experiment in a line: competition ELISA vs hAPRIL-biotin on coated human BCMA; antibody 100.00 nM.
For assay [44] the target is unchanged. Description: competition ELISA vs hAPRIL-biotin on coated human BCMA; antibody 1.23 nM.
The target is the same in assay [45]. The experiment in a line: competition ELISA vs hAPRIL-biotin on coated human BCMA; antibody 0.14 nM.
Assay [46] has the same target. Description: competition ELISA vs hAPRIL-biotin on coated human BCMA; antibody 33.33 nM.
Assay [47] has the same target. Description: competition ELISA vs hAPRIL-biotin on coated human BCMA; antibody 11.11 nM.
Assay [48] shares this target. Description: competition ELISA vs hAPRIL-biotin on coated human BCMA; antibody 3.70 nM.

“And” between values parts separate entries of the source, which are not always exact repeats. Equal entries are not always repeated.

monkey BCMA-His protein (monkey), sequence (A0A2K5 entry or part of it limits assumed): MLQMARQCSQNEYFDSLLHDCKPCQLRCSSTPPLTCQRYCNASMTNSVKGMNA
human BCMA-His protein (human), sequence (Q02223 1-54 limits assumed): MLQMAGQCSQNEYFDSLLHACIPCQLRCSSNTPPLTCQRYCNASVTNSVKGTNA
human BCMA on cells (human), sequence (Q02223 whole entry): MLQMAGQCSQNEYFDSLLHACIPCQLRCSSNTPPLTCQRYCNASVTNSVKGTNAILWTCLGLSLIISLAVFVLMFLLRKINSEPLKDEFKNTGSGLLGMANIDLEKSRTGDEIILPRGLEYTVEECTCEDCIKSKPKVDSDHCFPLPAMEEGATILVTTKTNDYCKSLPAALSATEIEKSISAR

Take “anti-hel-hIgG1 (negative control antibody against hen egg lysozyme)”: the Maximum mean fluorescence intensity in assay [1] is 110; in assay [8], 103; in assay [20] it was 86 and 101; in assay [22], 118; in assay [27] it was 94 and 69; in assay [38], 81 and 107. Moreover, the OD450 was 0.06 in assay [2]; 0.06 and 0.17 in [3]; 0.06 and 0.08 in assay [4]; 0.05 in [5]; 0.08 and 0.09 in [6]; 0.05 in [7]. Moreover, the OD450 is 0.11 and 0.28 in [9]; 0.05 in assay [10]; 0.05 in [11]; 0.08 and 0.09 in [12]; 0.1 in assay [13]; 0.08 in [14]. In addition, the OD450 in [15] is 0.06 and 0.09; in [17], 0.09 and 0.14; in [18], 0.12; in assay [19] it was 0.08 and 0.09; in [21], 0.08 and 0.1; in assay [23] it was 0.08 and 0.18. In addition, the OD450 in assay [25] was 0.08 and 0.09; in assay [26], 0.27 and 0.12; in assay [28] it was 0.05; in assay [29] it was 0.08 and 0.09; in assay [30] it was 0.04; in assay [31], 0.07. Moreover, the OD450 is 0.08 and 0.09 in assay [32]; 0.08 and 0.1 in assay [33]; 0.08 and 0.09 in assay [34]; 0.06 and 0.17 in assay [35]; 0.05 in assay [36]; 0.08 and 0.19 in [37]. The OD450 in [39], in [40] and in assay [41] was 0.05 throughout. In addition, the Cell mean fluorescence density was 49 in [16] and 54.6 in [24].
On to anti-hel-hIgG1 (antibody), for which the OD450 is 1.41 OD450 and 1.31 OD450 and 1.48 OD450 in [42]; 1.54 OD450 and 1.45 OD450 and 1.57 OD450 in assay [43]; 1.43 OD450 and 1.27 OD450 and 1.53 OD450 in assay [44]; 1.43 OD450 and 1.28 OD450 and 1.63 OD450 in assay [45]; 1.41 OD450 and 1.31 OD450 and 1.46 OD450 in assay [46]; 1.39 OD450 and 1.24 OD450 and 1.51 OD450 in assay [47]. The OD450 in [48] is 1.38 OD450 and 1.29 OD450 and 1.53 OD450.
